Blank lines part the entries; values can stand above or below the binder they belong to.
Experiments:
Experiment in all cases: alanine scan, flow cytometry;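 also: HEK293-T cells transiently expressing single-residue alanine mutants of CD33 (alanine swapped to serine), antibody binding read by fluorescence in duplicate, background-subtracted, expressed relative to wild-type CD33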
human CD33 C41A = human CD33 C41A (human, UniProt P20138 18-364)
human CD33 I199A = human CD33 I199A (human, UniProt P20138 18-364)
human CD33 E252A = human CD33 E252A (human, UniProt P20138 18-364)
human CD33 G218A = human CD33 G218A (human, UniProt P20138 18-364)
Sequence of human CD33 G218A (P20138 18-364 G218A limits assumed): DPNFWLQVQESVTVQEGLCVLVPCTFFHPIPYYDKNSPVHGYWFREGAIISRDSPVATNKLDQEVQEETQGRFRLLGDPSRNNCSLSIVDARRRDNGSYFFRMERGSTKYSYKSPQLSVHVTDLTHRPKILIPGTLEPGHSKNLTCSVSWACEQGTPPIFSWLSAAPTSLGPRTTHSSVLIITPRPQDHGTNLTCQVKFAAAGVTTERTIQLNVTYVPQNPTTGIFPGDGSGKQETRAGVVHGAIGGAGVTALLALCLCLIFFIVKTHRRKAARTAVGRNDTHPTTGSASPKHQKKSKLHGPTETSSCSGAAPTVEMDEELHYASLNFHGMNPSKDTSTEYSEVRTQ

human CD33 T268A = human CD33 T268A (human, UniProt P20138 18-364)
human CD33 V214A = human CD33 V214A (human, UniProt P20138 18-364)
human CD33 G241A = human CD33 G241A (human, UniProt P20138 18-364)
human CD33 P235A = human CD33 P235A (human, UniProt P20138 18-364)
Sequence of human CD33 P235A (P20138 18-364 P235A limits assumed): as the sequence (P20138 18-364 G218A limits assumed) above, with A201G, P218A counted along it

human CD33 N230A = human CD33 N230A (human, UniProt P20138 18-364)
human CD33 P203A = human CD33 P203A (human, UniProt P20138 18-364)
human CD33 F216A = human CD33 F216A (human, UniProt P20138 18-364)
human CD33 T226A = human CD33 T226A (human, UniProt P20138 18-364)
human CD33 G249A = human CD33 G249A (human, UniProt P20138 18-364)
human CD33 T223A = human CD33 T223A (human, UniProt P20138 18-364)
human CD33 L210A = human CD33 L210A (human, UniProt P20138 18-364)
Sequence of human CD33 L210A (P20138 18-364 L210A limits assumed): as the sequence (P20138 18-364 G218A limits assumed) above, with L193A, A201G counted along it

human CD33 R225A = human CD33 R225A (human, UniProt P20138 18-364)
human CD33 L197A = human CD33 L197A (human, UniProt P20138 18-364)
human CD33 D205A = human CD33 D205A (human, UniProt P20138 18-364)
Sequence of human CD33 D205A (P20138 18-364 D205A limits assumed): as the sequence (P20138 18-364 G218A limits assumed) above, with D188A, A201G counted along it

human CD33 V258A = human CD33 V258A (human, UniProt P20138 18-364)
Sequence of human CD33 V258A (P20138 18-364 V258A limits assumed): as the sequence (P20138 18-364 G218A limits assumed) above, with A201G, V241A counted along it

human CD33 I262A = human CD33 I262A (human, UniProt P20138 18-364)
human CD33 D246A = human CD33 D246A (human, UniProt P20138 18-364)
Sequence of human CD33 D246A (P20138 18-364 D246A limits assumed): as the sequence (P20138 18-364 G218A limits assumed) above, with A201G, D229A counted along it

human CD33 Q228A = human CD33 Q228A (human, UniProt P20138 18-364)
human CD33 I198A = molecular target: T1, human CD33 I198A (human, UniProt P20138 18-364)
T1 construct: the leading token is not explained

human CD33 A269S = human CD33 A269S (human, UniProt P20138 18-364)
human CD33 I227A = human CD33 I227A (human, UniProt P20138 18-364)
human CD33 G263A = human CD33 G263A (human, UniProt P20138 18-364)
Sequence of human CD33 G263A (P20138 18-364 G263A limits assumed): as the sequence (P20138 18-364 G218A limits assumed) above, with A201G, G246A counted along it

human CD33 G260A = human CD33 G260A (human, UniProt P20138 18-364)
human CD33 G220A = human CD33 G220A (human, UniProt P20138 18-364)
Sequence of human CD33 G220A (P20138 18-364 G220A limits assumed): as the sequence (P20138 18-364 G218A limits assumed) above, with A201G, G203A counted along it

human CD33 G264A = human CD33 G264A (human, UniProt P20138 18-364)
human CD33 L229A = human CD33 L229A (human, UniProt P20138 18-364)
Sequence of human CD33 L229A (P20138 18-364 L229A limits assumed): as the sequence (P20138 18-364 G218A limits assumed) above, with A201G, L212A counted along it

human CD33 H259A = human CD33 H259A (human, UniProt P20138 18-364)
Sequence of human CD33 H259A (P20138 18-364 H259A limits assumed): as the sequence (P20138 18-364 G218A limits assumed) above, with A201G, H242A counted along it

human CD33 I242A = human CD33 I242A (human, UniProt P20138 18-364)
Sequence of human CD33 I242A (P20138 18-364 I242A limits assumed): as the sequence (P20138 18-364 G218A limits assumed) above, with A201G, I225A counted along it

human CD33 T239A = human CD33 T239A (human, UniProt P20138 18-364)
human CD33 T232A = human CD33 T232A (human, UniProt P20138 18-364)
human CD33 A265S = human CD33 A265S (human, UniProt P20138 18-364)
Sequence of human CD33 A265S (P20138 18-364 A265S limits assumed): as the sequence (P20138 18-364 G218A limits assumed) above, with A201G, A248S counted along it

human CD33 A255S = human CD33 A255S (human, UniProt P20138 18-364)
human CD33 P244A = human CD33 P244A (human, UniProt P20138 18-364)
human CD33 V234A = human CD33 V234A (human, UniProt P20138 18-364)
Sequence of human CD33 V234A (P20138 18-364 V234A limits assumed): as the sequence (P20138 18-364 G218A limits assumed) above, with A201G, V217A counted along it

human CD33 Q213A = human CD33 Q213A (human, UniProt P20138 18-364)
Sequence of human CD33 Q213A (P20138 18-364 Q213A limits assumed): as the sequence (P20138 18-364 G218A limits assumed) above, with Q196A, A201G counted along it

human CD33 T200A = human CD33 T200A (human, UniProt P20138 18-364)
human CD33 A217S = human CD33 A217S (human, UniProt P20138 18-364)

B1: Refmab #4 (antibody, V domains shown)
VH: QVQLVQSGAEVKKPGESVKVSCKASGYTFTNYGMNWVKQAPGQGLEWMGWINTYTGEPTYADKFQGRVTMTTDTSTSTAYMEIRNLGGDDTAVYYCARWSWSDGYYVYFDYWGQGTSVTVSS
VL: DIVMTQSPDSLTVSLGERTTINCKSSQSVLDSSTNKNSLAWYQQKPGQPPKLLLSWASTRESGIPDRFSGSGSGTDFTLTIDSPQPEDSATYYCQQSAHFPITFGQGTRLEIK
notes: Full-length format is human IgG1 Fc silent (PG-LALA); The alanine scan used IgG or Fab
Mean % WT Binding (human CD33 C41A): 9.8 % WT

B2: Refmab #3 (antibody, V domains shown)
VH: QVQLVQSGAEVKKPGSSVKVSCKASGYTFTDYNMHWVRQAPGQGLEWIGYIYPYNGGTGYNQKFKSKATITADESTNTAYMELSSLRSEDTAVYYCARGRPAMDYWGQGTLVTVSS
VL: DIQMTQSPSSLSASVGDRVTITCRASESVDNYGISFMNWFQQKPGKAPKLLIYAASNQGSGVPSRFSGSGSGTDFTLTISSLQPDDFATYYCQQSKEVPWTFGQGTKVEIK
notes: as for B1
Mean % WT Binding (human CD33 C41A): 30.7 % WT

Results, then the binder that gave them:

Mean % WT Binding (human CD33 I199A): 132 % WT binding | Mean % WT Binding (human CD33 E252A): 114 % WT binding | Mean % WT Binding (human CD33 G218A): 102 % WT binding | Mean % WT Binding (human CD33 T268A): 84.7 % WT binding | Mean % WT Binding (human CD33 V214A): 127 % WT binding | Mean % WT Binding (human CD33 G241A): 109 % WT binding | Mean % WT Binding (human CD33 P235A): 102 % WT binding | Mean % WT Binding (human CD33 N230A): 105 % WT binding | Mean % WT Binding (human CD33 P203A): 105 % WT binding | Mean % WT Binding (human CD33 F216A): 104 % WT binding | Mean % WT Binding (human CD33 T226A): 97.9 % WT binding | Mean % WT Binding (human CD33 G249A): 105 % WT binding | Mean % WT Binding (human CD33 T223A): 115 % WT binding | Mean % WT Binding (human CD33 L210A): 78.2 % WT binding | Mean % WT Binding (human CD33 R225A): 124 % WT binding | Mean % WT Binding (human CD33 L197A): 102 % WT binding | Mean % WT Binding (human CD33 D205A): 12.3 % WT binding | Mean % WT Binding (human CD33 V258A): 95.9 % WT binding | Mean % WT Binding (human CD33 I262A): 97.5 % WT binding | Mean % WT Binding (human CD33 D246A): 115 % WT binding | Mean % WT Binding (human CD33 Q228A): 129 % WT binding | Mean % WT Binding (human CD33 I198A): 84.7 % WT binding | Mean % WT Binding (human CD33 A269S): 124 % WT binding | Mean % WT Binding (human CD33 I227A): 105 % WT binding | Mean % WT Binding (human CD33 G263A): 104 % WT binding | Mean % WT Binding (human CD33 G260A): 102 % WT binding | Mean % WT Binding (human CD33 G220A): 93.5 % WT binding | Mean % WT Binding (human CD33 G264A): 94.4 % WT binding | Mean % WT Binding (human CD33 L229A): 106 % WT binding | Mean % WT Binding (human CD33 H259A): 94.5 % WT binding | Mean % WT Binding (human CD33 I242A): 81.8 % WT binding | Mean % WT Binding (human CD33 T239A): 107 % WT binding | Mean % WT Binding (human CD33 T232A): 81.5 % WT binding | Mean % WT Binding (human CD33 A265S): 99.7 % WT binding | Mean % WT Binding (human CD33 A255S): 88.3 % WT binding | Mean % WT Binding (human CD33 P244A): 107 % WT binding | Mean % WT Binding (human CD33 V234A): 115 % WT binding | Mean % WT Binding (human CD33 Q213A): 128 % WT binding | Mean % WT Binding (human CD33 T200A): 98.3 % WT binding | Mean % WT Binding (human CD33 A217S): 121 % WT binding
B3: Refmab #5 (antibody, V domains shown)
VH: QVQLVQSGAEVKKPGASVKVSCKASGYTFTNYDINWVRQAPGQGLEWIGWIYPGDGSTKYNEKFKAKATLTADTSTSTAYMELRSLRSDDTAVYYCASGYEDAMDYWGQGTTVTVSS
VL: DIQMTQSPSSLSASVGDRVTINCKASQDINSYLSWFQQKPGKAPKTLIYRANRLVDGVPSRFSGSGSGQDYTLTISSLQPEDFATYYCLQYDEFPLTFGGGTKVEIK
notes: Full-length format is human IgG1 Fc silent (PG-LALA); also made as Fab; The alanine scan used IgG or Fab

Mean % WT Binding (human CD33 I199A): 106 % WT binding | Mean % WT Binding (human CD33 E252A): 108 % WT binding | Mean % WT Binding (human CD33 G218A): 98 % WT binding | Mean % WT Binding (human CD33 T268A): 100 % WT binding | Mean % WT Binding (human CD33 V214A): 94.4 % WT binding | Mean % WT Binding (human CD33 G241A): 101 % WT binding | Mean % WT Binding (human CD33 P235A): 84.3 % WT binding | Mean % WT Binding (human CD33 N230A): 83.8 % WT binding | Mean % WT Binding (human CD33 P203A): 103 % WT binding | Mean % WT Binding (human CD33 F216A): 82.5 % WT binding | Mean % WT Binding (human CD33 T226A): 96.5 % WT binding | Mean % WT Binding (human CD33 G249A): 96.6 % WT binding | Mean % WT Binding (human CD33 T223A): 110 % WT binding | Mean % WT Binding (human CD33 L210A): 96.9 % WT binding | Mean % WT Binding (human CD33 R225A): 104 % WT binding | Mean % WT Binding (human CD33 L197A): 103 % WT binding | Mean % WT Binding (human CD33 D205A): 3.1 % WT binding | Mean % WT Binding (human CD33 V258A): 95.9 % WT binding | Mean % WT Binding (human CD33 I262A): 99.4 % WT binding | Mean % WT Binding (human CD33 D246A): 106 % WT binding | Mean % WT Binding (human CD33 Q228A): 100 % WT binding | Mean % WT Binding (human CD33 I198A): 89.3 % WT binding | Mean % WT Binding (human CD33 A269S): 93.9 % WT binding | Mean % WT Binding (human CD33 I227A): 88.1 % WT binding | Mean % WT Binding (human CD33 G263A): 94.3 % WT binding | Mean % WT Binding (human CD33 G260A): 97.2 % WT binding | Mean % WT Binding (human CD33 G220A): 99.8 % WT binding | Mean % WT Binding (human CD33 G264A): 103 % WT binding | Mean % WT Binding (human CD33 L229A): 97.1 % WT binding | Mean % WT Binding (human CD33 H259A): 86.4 % WT binding | Mean % WT Binding (human CD33 I242A): 99 % WT binding | Mean % WT Binding (human CD33 T239A): 87.3 % WT binding | Mean % WT Binding (human CD33 T232A): 79.6 % WT binding | Mean % WT Binding (human CD33 A265S): 107 % WT binding | Mean % WT Binding (human CD33 A255S): 96.8 % WT binding | Mean % WT Binding (human CD33 P244A): 101 % WT binding | Mean % WT Binding (human CD33 V234A): 109 % WT binding | Mean % WT Binding (human CD33 Q213A): 98 % WT binding | Mean % WT Binding (human CD33 T200A): 110 % WT binding | Mean % WT Binding (human CD33 A217S): 91 % WT binding
B4: Refmab #6 (antibody, V domains shown)
VH: QVQLQQPGAEVVKPGASVKMSCKASGYTFTSYYIHWIKQTPGQGLEWVGVIYPGNDDISYNQKFQGKATLTADKSSTTAYMQLSSLTSEDSAVYYCAREVRLRYFDVWGQGTTVTVSS
VL: EIVLTQSPGSLAVSPGERVTMSCKSSQSVFFSSSQKNYLAWYQQIPGQSPRLLIYWASTRESGVPDRFTGSGSGTDFTLTISSVQPEDLAIYYCHQYLSSRTFGQGTKLEIK
notes: as for B3

Source: patent US20260242735A1 (UNIVERSIT T BASEL, published 2026)
